Test results as given in publication PMC4446614.

Target: His-sumo-TBC1D15 (shark TBC1D15 from Chiloscyllium plagiosum) (Chiloscyllium plagiosum)

Substance “MBP-Rab7a-WT (from UniProt P51149 1-207) (natural protein)” has a release of inorganic phosphate (Pi) by GTP hydrolysis, A360 read every 5 min (EnzChek Phosphate Assay Kit; Rab7 700 nM, TBC1D15 300 nM, 22 °C); Rab or TBC1D15 alone as the blank of 0.4 A360.
